B1: library; numbered along this chain (parent)
chain: MRKPRAAVGSGHRKQAASQEGRQKHAKNNSQAKPSACDGLARQPEEVVLQASVSSYHLFRDVAEVTAFRGSLLSWYDQEKRDLPWRRRAEDEMDLDRRAYAVWVSEVMLQQTQVATVINYYTGWMQKWPTLQDLASASLEEVNQLWAGLGYYSRGRRLQEGARKVVEELGGHMPRTAETLQQLLPGVGRYTAGAIASIAFGQATGVVDGNVARVLCRVRAIGADPSSTLVSQQLWGLAQQLVDPARPGDFNQAAMELGATVCTPQRPLCSQCPVESLCRARQRVEQEQLLASGSLSGSPDVEECAPNTGQCHLCLPPSEPWDQTLGVVNFPRKASRKPPREESSATCVLEQPGALGAQILLVQRPNSGLLAGLWEFPSVTWEPSEQLQRKALLQELQRWAGPLPATHLRHLGEVVHTFSHIKLTYQVYGLALEGQTPVTTVPPGARWLTQEEFHTAAVSTAMKKVFRVYQGQQPGTCMGSKRSQVSSPCSRKKPRMGQQVLDNFFRSHISTDAHSLNSAAQ

Variants of: B1
Test: 8OG:A repair function score (normalized; synonymous = 0, nonsense = -1) (normalized log-likelihood score); higher = more repair activity (WT-like)
Settings: with 8OG:A DNA repair reporter (GFP) in HEK-293 MUTYH KO cells
Summary of the method: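 With 10 pg/ml doxycycline, MUTYH knockout HEK-293 cells carrying lentiviral MUTYH cDNA NNN codon-scan libraries were co-transfected with mCherry and an 8OG:A GFP repair reporter. Viable mCherry+ cells were sorted into GFP+ (repair) and GFP− bins at 72 h, three replicates per tile, and tile amplicons were sequenced. Per-tile Rosace fitness scores were then normalized into a repair function score anchored on synonymous and nonsense distributions. Medians were fixed at 0 for synonymous and -1 for nonsense, excluding variants under 300 counts per million at the start.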

Point of comparison: MRKPRAAVGSGHRKQAASQEGRQKHAKNNSQAKPSACDGLARQPEEVVLQASVSSYHLFRDVAEVTAFRGSLLSWYDQEKRDLPWRRRAEDEMDLDRRAYAVWVSEVMLQQTQVATVINYYTGWMQKWPTLQDLASASLEEVNQLWAGLGYYSRGRRLQEGARKVVEELGGHMPRTAETLQQLLPGVGRYTAGAIGSIAFGQATGVVDGNVARVLCRVRAIGADPSSTLVSQQLWGLAQQLVDPARPGDFNQAAMELGATVCTPQRPLCSQCPVESLCRARQRVEQEQLLASGSLSGSPDVEECAPNTGQCHLCLPPSEPWDQTLGVVNFPRKASRKPPREESSATCVLEQPGALGAQILLVQRPNSGLLAGLWEFPSVTWEPSEQLQRKALLQELQRWAGPLPATHLRHLGEVVHTFSHIKLTYQVYGLALEGQTPVTTVPPGARWLTQEEFHTAAVSTAMKKVFRVYQGQQPGTCMGSKRSQVSSPCSRKKPRMGQQVLDNFFRSHISTDAHSLNSAAQ [A196G], “8OG:A repair function score” value -0.309. Against it:
- MRKPRAAVGSGHRKQAASQEGRQKHAKNNSQAKPSACDGLARQPEEVVLQASVSSYHLFRDVAEVTAFRGSLLSWYDQEKRDLPWRRRAEDEMDLDRRAYAVWVSEVMLQQTQVATVINYYTGWMQKWPTLQDLASASLEEVNQLWAGLGYYSRGRRLQEGARKVVEELGGHMPRTAETLQQLLPGVGRYTAGAIASIAFGQATGVVDGNVARVLCRVRAIGADPSSTLVSQQLWGLAQQLVDPARPGDFNQAAMELGATVCTPQRPLCSQCPVESLCRARQRVEQEQLLASGSLSGSPDVEECAPNTGQCHLCLPPSEPWDQTLGVVNFPRKASRKPPREESSATCVLEQPGALGAQILLVQRPNSGLLAGLWEFPSVKWEPSEQLQRKALLQELQRWAGPLPATHLRHLGEVVHTFSHIKLTYQVYGLALEGQTPVTTVPPGARWLTQEEFHTAAVSTAMKKVFRVYQGQQPGTCMGSKRSQVSSPCSRKKPRMGQQVLDNFFRSHISTDAHSLNSAAQ [T380K] — higher, -0.0484
- MRKPRAAVGSGHRKQAASQEGRQKHAKNNSQAKPSACDGLARQPEEVVLQASVSSYHLFRDVAEVTAFRGSLLSWYDQEKRDLPWRRRAEDEMDLDRRAYAVWVSEVMLQQTQVATVINYYTGWMQKWPTLQDLASASLEEVNQLWAGLGYYSRGRRLQEGARKVVEELGGHMPRTAETLQQLLPGVGRYTAGAIASIAFGQATGVVDGNVARVLCRVRAIGADPSSTLVSQQLWGLAQQLVDPARPGDFNQAAMELGATVCTPQRPLCSQCPVESLCRARQRVEQEQLLASGSLSGSPDVEECAPNTGQCHLCLPPSEPWDQTLGVVNFPRKASRKPPREESSATCVLEQPGALGAQILLVQRPNSGLLAGLWEFPSVTWEPSEQLQRKALLQELQRWAGPLPATHLRHLGEVVHTFSHIKLTYQVYGLALEGQTPVTTVPPGARWLTQEEFHTAAVSTAMKKVFRVYQGQQPGTCMGSKRSQVSNPCSRKKPRMGQQVLDNFFRSHISTDAHSLNSAAQ [S487N] — higher, 0.0119
- MRKPRAAVGSGHRKQAASQEGRQKHAKNNSQAKPSACDGLARQPEEVVLQASVSSYHLFRDVAEVTAFRGSLLSWYDQEKRDLPWRRRAEDEMDLDRRAYAVWVSEVMLQQTQVATVINYYTGWMQKWPTLQDLASASLEEVNQLWAGLGYYSRGRRLQEGARKVVEELGGHMPRTAETLQQLLPGVGRYTAGAIASIAFGQATGVVDGNVARVLCRVRAIGADPSSTLVSQQLWGLAQQLVDPARPGDFNQAAMELGATVCTPQRPLCSQCPVESLCRARQRVEQEQLLASGSLSGSPDVEECAPNTGQCHLCLPPSEPWDQTLGVVNFPRKASRKPPREESSATCVLEQPGALGAQILLVQRPNSGLLAGLWEFPSVTWEPSEQLQRKALLQELQRWAGPLPATHLRHLGEVVHTFSHIKLTYQVYGLALEGQTPVTTVPPGARWLTQEEFHTAAVSTAMKKVFRVYQGQQPGTCMGSKRSQVSSPCSRKKPRMGQQVLDNFFRSHISTDAHSLNSTAQ [A519T] — higher, -0.0144
- MRKPRAAVGSGHRKQAASQEGRQKHAKNNSQAKPSACDGLARQPEEVVLQASVSSYHLFRDVAEVTAFRGSLLSWYDQEKRDLPWRRRAEDEMDLDRRAYAVWVSEVMLQQTQVATVINYYTGWMQKWPTLQDLASASLEEVNQLWAGLGYYSRGRRLQEGARKVVEELGGHMPRTAETLQQLLPGVGRYTAGAIASIAFGQATGVVDGNVARVLCRVRAIGADPSSTLVSQQLWGLAQQLVDPARPGDFNQAAMELGATVCTPQRPLCSQCPVESLCRARQRVEQEQLLASGSLSGSPDVEECAPNTGQCHLCLPPSEPWDQTLGVVNFPRKASRKPPREESSATCVLEQPGALGAQILLVQRPNSGLLAGLWEFPSVTWEPSEQLQRKALLQELQRWAGPLPATHLRHLGEVVHTFSHIKLTYQVYGLALEGQTPVTTVPPGARWLTQEEFHTAAVSTAMKKVKRVYQGQQPGTCMGSKRSQVSSPCSRKKPRMGQQVLDNFFRSHISTDAHSLNSAAQ [F466K] — lower, -0.729
- MRKPRAAVGSGHRKQAASQEGRQKHAKNNSQAKPSACDGLARQPEEVVLQASVSSYHLFRDVAEVTAFRGSLLSWYDQEKRDLPWRRRAEDEMDLDRRAYAVWVSEVMLQQTQVATVINYYTGWMQKWPTLQDLASASLEEVNQLWAGLGYYSRGRRLQEGARKVVEELGGHMPRTAETLQQLLPGVGRYTAGAIASIAFGQATGVVDGNVARVLCRVRAIGADPSSTLVSQQLWGLAQQLVDPARPGDFNQAAMELGATVCTPQRPLCSQCPVESLCRARQRVEQEQLLASGSLSGSPDVEECAPNTGQCHLCLPPSEPWDQTLGVVNFPRKASRKPPREESSATCVLEQPGALGAQILLVQRPNSGLLAGLWEFPSVTWEPSEQLQLKALLQELQRWAGPLPATHLRHLGEVVHTFSHIKLTYQVYGLALEGQTPVTTVPPGARWLTQEEFHTAAVSTAMKKVFRVYQGQQPGTCMGSKRSQVSSPCSRKKPRMGQQVLDNFFRSHISTDAHSLNSAAQ [R389L] — higher, -0.04
- MRKPRAAVGSGHRKQAASQEGRQKHAKNNSQAKPSACDGLARQPEEVVLQASVSSYHLFRDVAEVTAFRGSLLSWYDQEKRDLPWRRRAEDEMDLDRRAYAVWVSEVMLQQTQVATVINYYTGWMQKWPTLQDLASASLEEVNQLWAGLGYHSRGRRLQEGARKVVEELGGHMPRTAETLQQLLPGVGRYTAGAIASIAFGQATGVVDGNVARVLCRVRAIGADPSSTLVSQQLWGLAQQLVDPARPGDFNQAAMELGATVCTPQRPLCSQCPVESLCRARQRVEQEQLLASGSLSGSPDVEECAPNTGQCHLCLPPSEPWDQTLGVVNFPRKASRKPPREESSATCVLEQPGALGAQILLVQRPNSGLLAGLWEFPSVTWEPSEQLQRKALLQELQRWAGPLPATHLRHLGEVVHTFSHIKLTYQVYGLALEGQTPVTTVPPGARWLTQEEFHTAAVSTAMKKVFRVYQGQQPGTCMGSKRSQVSSPCSRKKPRMGQQVLDNFFRSHISTDAHSLNSAAQ [Y152H] — lower, -0.695
- MRKPRAAVGSGHRKQAASQEGRQKHAKNNSQAKPSACDGLARQPEEVVLQASVSSYHLFRDVAEVTAFRGSLLSWYDQEKRDLPWRRRAEDEMDLDRRAYAVWVSEVMLQQTQVATVINYYTGWMQKWPTLQDLASASLEEVNQLWAGLGYYSRGRRLQEGARKVVEELGGHMPRTAETLQQLLPGVGRYTAGAIASIAFGQATGSVDGNVARVLCRVRAIGADPSSTLVSQQLWGLAQQLVDPARPGDFNQAAMELGATVCTPQRPLCSQCPVESLCRARQRVEQEQLLASGSLSGSPDVEECAPNTGQCHLCLPPSEPWDQTLGVVNFPRKASRKPPREESSATCVLEQPGALGAQILLVQRPNSGLLAGLWEFPSVTWEPSEQLQRKALLQELQRWAGPLPATHLRHLGEVVHTFSHIKLTYQVYGLALEGQTPVTTVPPGARWLTQEEFHTAAVSTAMKKVFRVYQGQQPGTCMGSKRSQVSSPCSRKKPRMGQQVLDNFFRSHISTDAHSLNSAAQ [V206S] — lower, -0.585
- MRKPRAAVGSGHRKQAASQEGRQKHAKNNSQAKPSACDGLARQPEEVVLQASVSSYHLFRDVAEVTAFRGSLLSWYDQEKRDLPWRRRAEDEMDLDRRAYAVWVSEVMLQQTQVATVINYYTGWMQKWPTLQDLASASLEEVNQLWAGLGYYSRGRRLQEGARKVVEELGGHMPRTAETLQQLLPGVGRYTAGAIASIAFGQATGVVDGNVARVLCRVRAIGADPSSTLVSQQLWGLAQQLVDPARPGDFNQAAMELGATVCTPQRPLCSQCPVESLCRARQRVEQEQLLASGSLSGSPDVEECAPNTGQCHLCLPPSEPWDQTLGVVNFPRKASRKPPREESSATCVLEQPGALGAQILLVQRPNSGLLAGLWEFPSVTWEPSEQLQRKALLQELQRWAGPLPATHLRHLGEVVHTFSHIKLTYQVYGLALEGQTPVTTVPPGARWYTQEEFHTAAVSTAMKKVFRVYQGQQPGTCMGSKRSQVSSPCSRKKPRMGQQVLDNFFRSHISTDAHSLNSAAQ [L448Y] — lower, -0.324
- MRKPRAAVGSGHRKQAASQEGRQKHAKNNSQAKPSACDGLARQPEEVVLQASVSSYHLFRDVAEVTAFRGSLLSWYDQEKRDLPWRRRAEDEMDLDRRAYAVWVSEVMLQQTQVATVINYYTGWMQKWPTLQDLASASLEEVNQLWAGLGYYSRGRRLQEGARKVVEELGGHMPRTAETLQQLLPGVGRYTAGAIASIAFGQATGVVDGNVARVLCRVRAIGADPSSTLVSQQLWGLAQQLVDPARPGDFNQAAMELGATVCTPQRPLCSQCPVESLCRARQRVEQEQLLASGSLSGSPDVEECAPNTGQCHLCLPPQEPWDQTLGVVNFPRKASRKPPREESSATCVLEQPGALGAQILLVQRPNSGLLAGLWEFPSVTWEPSEQLQRKALLQELQRWAGPLPATHLRHLGEVVHTFSHIKLTYQVYGLALEGQTPVTTVPPGARWLTQEEFHTAAVSTAMKKVFRVYQGQQPGTCMGSKRSQVSSPCSRKKPRMGQQVLDNFFRSHISTDAHSLNSAAQ [S318Q] — higher, -0.0273
- MRKPRAAVGSGHRKQAASQEGRQKHAKNNSQAKPSACDGLARQPEEVVLQASVSSYHLFRDVAEVTAFRGSLLSWYDQEKRDLPWRRRAEDEMDLDRRAYAVWVSEVMLQQTQVATVINYYTGWMQKWPTLQDLASASLEEVNQLWAGLGYYSRGRRLQEGARKVVEELGGHMPRTAETLQQLLPGVGRYTAGAIASIAFGQATGVVDGNVARVLCRVRAIGADPSSTLVSQQLWGLAQQLVDPARPGDFNQAAMELGATVCTPQRPLCSQCPVESLCRARQRVEQEQLLASGSLSGSPDVEECAPNTGQCHLCLPPSEPWDQTLGVVNFPRKASRKPPREESSATCVLEQPGALGAQILLVQRPNSGLLAGLWEFPSVTWEPSEQLQRKALLQELQRWAGPLPATHLRHLGEVVHTFSHIKLTYQVYGLALEGQTPVTTVPPGARWLTQEEFHTAAVSTAMKKVFRVYQGQQPGTCMPSKRSQVSSPCSRKKPRMGQQVLDNFFRSHISTDAHSLNSAAQ [G479P] — higher, 0.0129
- MRKPRAAVGSGHRKQAASQEGRQKHAKNNSQAKPSACDGLARQPEEVVLQASVSSYHLFRDVAEVTAFRGSLLSWYDQEKRDLPWRRRAEDEMDLDRRAYAVWVSEVMLQQTQVATVINYYTGWMQKWPTLQDLASASLEEVNQLWAGLGLYSRGRRLQEGARKVVEELGGHMPRTAETLQQLLPGVGRYTAGAIASIAFGQATGVVDGNVARVLCRVRAIGADPSSTLVSQQLWGLAQQLVDPARPGDFNQAAMELGATVCTPQRPLCSQCPVESLCRARQRVEQEQLLASGSLSGSPDVEECAPNTGQCHLCLPPSEPWDQTLGVVNFPRKASRKPPREESSATCVLEQPGALGAQILLVQRPNSGLLAGLWEFPSVTWEPSEQLQRKALLQELQRWAGPLPATHLRHLGEVVHTFSHIKLTYQVYGLALEGQTPVTTVPPGARWLTQEEFHTAAVSTAMKKVFRVYQGQQPGTCMGSKRSQVSSPCSRKKPRMGQQVLDNFFRSHISTDAHSLNSAAQ [Y151L] — higher, -0.0762

Source: the supplement of paper PMC11908140
